Target: the molecule itself
Test: microfluidic denaturing gel electrophoresis (Bioanalyzer); Agilent Bioanalyzer 2100, Protein 80 chip; purified Qβ-wt and Qβ@AncUOX particles; dimer band left by incomplete denaturation

B1: Qβ capsid protein (coat protein), assembled as virus-like particle (natural protein, Qβ (bacteriophage, as named), UniProt P03615 1-133, looked up)
chain: MAKLETVTLGNIGKDGKQTLVLNPRGVNPTNGVASLSQAGAVPALEKRVTVSVSQPSRNRKNYKVQVKIQNPTACTANGSCDPSVTRQAYADVTFSFTQYSTDEERAFVRTELAALLASPLLIDAIDQLNPAY
notes: also called Qβ CP; CP; source: E. coli BL21 (DE3), co-expressed with Rev-tagged AncUOX from a bicistronic pCDF-1b plasmid; VLPs purified (ammonium sulfate precipitation, n-butanol:chloroform extraction, sucrose density ultracentrifugation)
stoichiometry N: 2

From PMC10170503, “Oral Delivery of Nanoparticles Carrying Ancestral Uricase Enzyme Protects against Hyperuricemia in Knockout Mice” (Biomacromolecules, 2023)
